Laboratory results reported in publication PMC2790157.

B1: ING2 promoter putative NF-kB site (dsDNA)
DNA 1: CGCCGAGGGGATCCCCACTGCT
DNA 2: AGCAGTGGGGATCCCCTCGGCG
B2: NF-kB consensus (dsDNA)
DNA 1: AGTTGAGGGGACTTTCCCAGGC
DNA 2: GCCTGGGAAAGTCCCCTCAACT

Molecular target: NF-kB p50 (UniProt P19838 1-433)
Assay: EMSA

Sequence of NF-kB p50 (P19838 1-433): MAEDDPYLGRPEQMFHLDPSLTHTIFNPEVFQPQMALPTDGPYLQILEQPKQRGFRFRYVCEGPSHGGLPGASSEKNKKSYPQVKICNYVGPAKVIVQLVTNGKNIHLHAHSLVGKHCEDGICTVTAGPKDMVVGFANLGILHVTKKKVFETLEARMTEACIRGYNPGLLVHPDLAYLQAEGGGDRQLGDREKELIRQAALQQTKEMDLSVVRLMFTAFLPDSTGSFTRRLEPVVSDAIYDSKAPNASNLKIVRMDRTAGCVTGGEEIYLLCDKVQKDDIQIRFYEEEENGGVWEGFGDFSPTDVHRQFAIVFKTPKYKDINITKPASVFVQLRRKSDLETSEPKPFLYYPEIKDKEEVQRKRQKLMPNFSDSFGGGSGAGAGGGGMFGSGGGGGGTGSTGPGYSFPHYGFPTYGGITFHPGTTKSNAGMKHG

Binder	binding result
B1	binds
B2	binds
